# B1: Polycystin-2 (Homo sapiens), Q13563-1 (parent)
# chain: MVNSSRVQPQQPGDAKRPPAPRAPDPGRLMAGCAAVGASLAAPGGLCEQRGLEIEMQRIRQAAARDPPAGAAASPSPPLSSCSRQAWSRDNPGFEAEEEEEEVEGEEGGMVVEMDVEWRPGSRRSAASSAVSSVGARSRGLGGYHGAGHPSGRRRRREDQGPPCPSPVGGGDPLHRHLPLEGQPPRVAWAERLVRGLRGLWGTRLMEESSTNREKYLKSVLRELVTYLLFLIVLCILTYGMMSSNVYYYTRMMSQLFLDTPVSKTEKTNFKTLSSMEDFWKFTEGSLLDGLYWKMQPSNQTEADNRSFIFYENLLLGVPRIRQLRVRNGSCSIPQDLRDEIKECYDVYSVSSEDRAPFGPRNGTAWIYTSEKDLNGSSHWGIIATYSGAGYYLDLSRTREETAAQVASLKKNVWLDRGTRATFIDFSVYNANINLFCVVRLLVEFPATGGVIPSWQFQPLKLIRYVTTFDFFLAACEIIFCFFIFYYVVEEILEIRIHKLHYFRSFWNCLDVVIVVLSVVAIGINIYRTSNVEVLLQFLEDQNTFPNFEHLAYWQIQFNNIAAVTVFFVWIKLFKFINFNRTMSQLSTTMSRCAKDLFGFAIMFFIIFLAYAQLAYLVFGTQVDDFSTFQECIFTQFRIILGDINFAEIEEANRVLGPIYFTTFVFFMFFILLNMFLAIINDTYSEVKSDLAQQKAEMELSDLIRKGYHKALVKLKLKKNTVDDISESLRQGGGKLNFDELRQDLKGKGHTDAEIEAIFTKYDQDGDQELTEHEHQQMRDDLEKEREDLDLDHSSLPRPMSSRSFPRSLDDSEEDDDEDSGHSSRRRGSISSGVSYEEFQVLVRRVDRMEHSIGSIVSKIDAVIVKLEIMERAKLKRREVLGRLLDGVAEDERLGRDSEIHREQMERLVREELERWESDDAASQISHGLGTPVGLNGQPRPRSSRPSSSQSTEGMEGAGGNGSSNVHV
# Variants of: B1
# Details: with PKD1, P98161-3
# Chain of PKD1, P98161-3 (P98161 whole entry, looked up): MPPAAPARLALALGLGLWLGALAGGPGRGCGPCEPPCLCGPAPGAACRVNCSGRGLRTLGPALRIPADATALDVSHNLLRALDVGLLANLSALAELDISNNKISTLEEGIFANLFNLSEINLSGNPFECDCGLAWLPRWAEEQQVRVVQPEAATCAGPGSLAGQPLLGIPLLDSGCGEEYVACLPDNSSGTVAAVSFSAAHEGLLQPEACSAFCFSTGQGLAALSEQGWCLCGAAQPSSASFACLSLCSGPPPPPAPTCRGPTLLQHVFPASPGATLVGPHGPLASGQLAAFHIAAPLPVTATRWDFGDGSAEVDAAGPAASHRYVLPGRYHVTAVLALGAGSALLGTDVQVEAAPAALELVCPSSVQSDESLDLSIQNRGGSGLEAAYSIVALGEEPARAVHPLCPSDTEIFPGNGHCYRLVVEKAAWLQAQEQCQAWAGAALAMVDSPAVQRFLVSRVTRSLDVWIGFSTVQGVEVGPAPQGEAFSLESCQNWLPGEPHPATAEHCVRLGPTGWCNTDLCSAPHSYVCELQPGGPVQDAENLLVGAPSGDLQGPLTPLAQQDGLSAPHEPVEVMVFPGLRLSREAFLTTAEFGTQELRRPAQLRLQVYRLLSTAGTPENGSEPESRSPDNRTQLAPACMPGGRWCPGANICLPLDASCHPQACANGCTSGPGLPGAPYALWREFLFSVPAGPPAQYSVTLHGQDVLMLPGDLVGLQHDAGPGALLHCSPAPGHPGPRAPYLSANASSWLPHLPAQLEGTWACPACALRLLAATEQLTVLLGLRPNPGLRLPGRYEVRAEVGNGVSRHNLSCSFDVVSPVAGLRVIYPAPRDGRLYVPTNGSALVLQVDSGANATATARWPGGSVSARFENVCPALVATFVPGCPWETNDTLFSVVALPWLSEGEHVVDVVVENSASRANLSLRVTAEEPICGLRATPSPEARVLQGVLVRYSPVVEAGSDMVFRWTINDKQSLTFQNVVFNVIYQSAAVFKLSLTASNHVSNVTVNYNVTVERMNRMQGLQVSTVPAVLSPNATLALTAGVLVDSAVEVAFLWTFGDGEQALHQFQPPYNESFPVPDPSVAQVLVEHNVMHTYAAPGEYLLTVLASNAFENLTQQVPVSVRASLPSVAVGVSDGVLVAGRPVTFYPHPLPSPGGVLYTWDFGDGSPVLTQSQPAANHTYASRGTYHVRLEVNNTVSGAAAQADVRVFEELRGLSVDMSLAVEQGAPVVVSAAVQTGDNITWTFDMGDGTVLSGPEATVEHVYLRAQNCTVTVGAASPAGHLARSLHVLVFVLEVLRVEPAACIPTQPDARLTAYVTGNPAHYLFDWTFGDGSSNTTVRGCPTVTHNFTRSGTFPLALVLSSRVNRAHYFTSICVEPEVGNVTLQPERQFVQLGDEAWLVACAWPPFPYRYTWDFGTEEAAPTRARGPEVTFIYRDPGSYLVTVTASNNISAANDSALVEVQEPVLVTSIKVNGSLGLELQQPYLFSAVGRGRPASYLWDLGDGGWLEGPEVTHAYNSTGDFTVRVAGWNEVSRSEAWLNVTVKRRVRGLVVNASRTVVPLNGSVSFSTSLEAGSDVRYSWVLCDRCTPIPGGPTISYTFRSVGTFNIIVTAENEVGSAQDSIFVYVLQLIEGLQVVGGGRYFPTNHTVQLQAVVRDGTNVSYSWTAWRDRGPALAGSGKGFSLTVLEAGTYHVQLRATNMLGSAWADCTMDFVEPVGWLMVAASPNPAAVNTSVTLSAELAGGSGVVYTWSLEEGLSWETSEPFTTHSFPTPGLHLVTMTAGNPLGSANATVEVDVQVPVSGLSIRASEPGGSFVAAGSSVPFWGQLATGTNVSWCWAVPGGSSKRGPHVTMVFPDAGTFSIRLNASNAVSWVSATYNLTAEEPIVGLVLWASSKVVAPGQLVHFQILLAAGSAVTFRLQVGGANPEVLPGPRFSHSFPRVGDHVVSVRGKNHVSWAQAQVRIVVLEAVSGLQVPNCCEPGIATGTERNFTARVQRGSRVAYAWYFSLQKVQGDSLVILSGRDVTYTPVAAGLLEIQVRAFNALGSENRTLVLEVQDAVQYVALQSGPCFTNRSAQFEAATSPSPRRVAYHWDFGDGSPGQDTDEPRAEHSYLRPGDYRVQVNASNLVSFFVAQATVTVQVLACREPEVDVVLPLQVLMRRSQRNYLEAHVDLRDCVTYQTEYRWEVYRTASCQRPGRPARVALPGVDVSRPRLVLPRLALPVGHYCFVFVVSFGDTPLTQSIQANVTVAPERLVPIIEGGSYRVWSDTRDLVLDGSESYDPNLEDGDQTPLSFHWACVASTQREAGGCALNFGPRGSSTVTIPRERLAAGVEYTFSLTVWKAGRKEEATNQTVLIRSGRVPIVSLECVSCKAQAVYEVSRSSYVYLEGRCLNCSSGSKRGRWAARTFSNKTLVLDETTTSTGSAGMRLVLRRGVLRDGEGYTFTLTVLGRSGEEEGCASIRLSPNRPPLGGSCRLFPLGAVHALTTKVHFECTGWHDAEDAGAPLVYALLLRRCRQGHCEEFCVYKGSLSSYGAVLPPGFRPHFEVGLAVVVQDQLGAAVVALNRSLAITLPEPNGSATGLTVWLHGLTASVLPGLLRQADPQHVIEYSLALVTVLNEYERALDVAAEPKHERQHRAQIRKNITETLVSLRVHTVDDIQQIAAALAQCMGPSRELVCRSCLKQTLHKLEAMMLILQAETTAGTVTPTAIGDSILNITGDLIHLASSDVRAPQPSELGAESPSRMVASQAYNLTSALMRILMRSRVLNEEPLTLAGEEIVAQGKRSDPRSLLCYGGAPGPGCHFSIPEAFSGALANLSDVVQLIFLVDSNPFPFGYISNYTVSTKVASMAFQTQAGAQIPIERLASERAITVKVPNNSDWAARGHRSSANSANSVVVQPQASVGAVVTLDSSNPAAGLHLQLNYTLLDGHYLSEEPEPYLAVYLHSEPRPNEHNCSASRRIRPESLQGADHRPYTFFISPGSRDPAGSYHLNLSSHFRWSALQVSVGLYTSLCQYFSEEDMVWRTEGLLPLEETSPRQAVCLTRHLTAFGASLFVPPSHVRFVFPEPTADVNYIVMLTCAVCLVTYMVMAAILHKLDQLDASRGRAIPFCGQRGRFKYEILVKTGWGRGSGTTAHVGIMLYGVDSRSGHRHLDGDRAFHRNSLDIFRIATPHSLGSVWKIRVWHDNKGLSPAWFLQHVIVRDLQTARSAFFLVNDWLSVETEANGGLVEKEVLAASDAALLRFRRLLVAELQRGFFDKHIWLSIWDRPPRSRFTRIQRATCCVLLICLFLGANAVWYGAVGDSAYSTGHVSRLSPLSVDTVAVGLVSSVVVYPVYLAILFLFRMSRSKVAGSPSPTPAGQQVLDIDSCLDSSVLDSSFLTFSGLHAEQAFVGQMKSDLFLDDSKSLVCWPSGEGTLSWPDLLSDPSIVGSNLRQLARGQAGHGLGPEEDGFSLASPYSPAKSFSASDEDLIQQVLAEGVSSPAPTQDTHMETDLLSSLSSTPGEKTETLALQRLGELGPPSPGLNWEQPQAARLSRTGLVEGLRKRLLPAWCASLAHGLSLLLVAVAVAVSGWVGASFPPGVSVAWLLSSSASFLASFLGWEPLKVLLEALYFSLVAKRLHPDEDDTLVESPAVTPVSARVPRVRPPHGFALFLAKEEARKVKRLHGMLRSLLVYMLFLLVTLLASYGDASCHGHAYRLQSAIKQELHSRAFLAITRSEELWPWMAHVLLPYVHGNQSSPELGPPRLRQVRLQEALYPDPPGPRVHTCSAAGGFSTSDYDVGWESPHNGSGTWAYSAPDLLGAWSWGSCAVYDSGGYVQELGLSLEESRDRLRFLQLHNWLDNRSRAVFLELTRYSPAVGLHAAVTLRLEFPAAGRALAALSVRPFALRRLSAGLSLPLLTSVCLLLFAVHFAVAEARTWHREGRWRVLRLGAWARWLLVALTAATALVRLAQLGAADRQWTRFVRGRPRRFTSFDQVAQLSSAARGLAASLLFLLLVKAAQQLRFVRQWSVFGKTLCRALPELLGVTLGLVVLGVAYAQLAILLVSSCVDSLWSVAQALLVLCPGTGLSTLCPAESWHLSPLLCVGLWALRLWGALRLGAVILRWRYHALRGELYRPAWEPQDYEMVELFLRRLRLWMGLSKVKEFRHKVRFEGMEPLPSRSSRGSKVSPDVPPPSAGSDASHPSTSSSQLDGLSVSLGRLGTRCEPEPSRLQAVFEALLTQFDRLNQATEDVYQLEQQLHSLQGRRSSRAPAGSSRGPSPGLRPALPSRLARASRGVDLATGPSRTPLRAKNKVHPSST
row,Variant,effect of a mutation on the interaction
1,R877A;R878A,decreasing interaction strength
2,L881A;L885A,disrupting interaction strength
3,K876A;R877A;R878A;E879A,decreasing interaction strength
4,V865A;I869A,decreasing interaction strength
5,K876G;R877G;R878G;E879G,decreasing interaction strength
6,R883A;L884A,decreasing interaction strength
7,D861A;I864A;V865A,decreasing interaction strength
8,R877G;R878G,disrupting interaction strength
9,L881D;L885D,decreasing interaction strength
10,V880A;L881A;L885A,decreasing interaction strength
11,K876A;R877A,decreasing interaction strength

# Variants of: B1
# Details: with pkd1_mouse Pkd1, O08852
row,Variant,effect of a mutation on the interaction
1,L881A;L885A,decreasing interaction strength
2,V880A;L881A;L885A,decreasing interaction strength

# Source: IntAct's records for PubMed 21642537
